Substitutions are numbered along the chain they refer to. Names and notes keep the numbering of the source.
B1: parental rabbit anti-human CD88 mAb (hybridoma cell line CD88 clone C85-4124) (antibody, V domains shown)
VH: QSVKESEGGLFKPADTLTLTCTVSGFSVNNKGVMWVRQAPGNGLEWIGSIGISGRVTYATWAKSRSTITRDTNLNTVTLKVTSLTVADTATYFCRIGSNIWGPGTLVTVSS
VL: ELVLTQTPSSVSAAVGGTVTINCQSSQSVYNNNLLAWYQQKPGQPPKLLIYQASTLDSGVPSRFKGSGTGTHFTLTISDLECDDAATYYCQGGYNGNGIAAFGGGTEVVVDG
notes: Rabbit monoclonal antibody
B2: Variant 2 rabbit anti-human CD88 mAb, Y51A in light chain CDR-L1 (antibody, V domains shown)
VH: B1 VH
VL: B1 VL with Y30A
notes: Recombinant, made in 293F cells; also called second variant
B3: Variant 3 rabbit anti-human CD88 mAb, R116A in heavy chain and Y51A in light chain (antibody, V domains shown)
VH: B1 VH with R95A
VL: B1 VL with Y30A
notes: Recombinant double mutant, made in 293F cells; also called third variant
B4: Variant 4 rabbit anti-human CD88 mAb, R116A in heavy chain and Y51F in light chain (antibody, V domains shown)
VH: B1 VH with R95A
VL: B1 VL with Y30F
notes: Recombinant double mutant, made in 293F cells; also called fourth variant
B5: Variant 1 rabbit anti-human CD88 mAb, R116A in heavy chain CDR-H3 (antibody, V domains shown)
VH: B1 VH with R95A
VL: B1 VL
notes: No signal peptide limits are stated; also called first variant

Assays:
[1] = molecular target: T1, human CD88 (complement component 5a receptor 1) (human, UniProt P21730 1-350); assay: flow cytometry on granulocytes, PE goat anti-rabbit secondary
T1 construct: Native antigen on granulocytes of lysed human whole blood / PBMC preparations, read by flow cytometry; also called C5AR1; native CD88 antigen expressed on granulocytes
T1 chain: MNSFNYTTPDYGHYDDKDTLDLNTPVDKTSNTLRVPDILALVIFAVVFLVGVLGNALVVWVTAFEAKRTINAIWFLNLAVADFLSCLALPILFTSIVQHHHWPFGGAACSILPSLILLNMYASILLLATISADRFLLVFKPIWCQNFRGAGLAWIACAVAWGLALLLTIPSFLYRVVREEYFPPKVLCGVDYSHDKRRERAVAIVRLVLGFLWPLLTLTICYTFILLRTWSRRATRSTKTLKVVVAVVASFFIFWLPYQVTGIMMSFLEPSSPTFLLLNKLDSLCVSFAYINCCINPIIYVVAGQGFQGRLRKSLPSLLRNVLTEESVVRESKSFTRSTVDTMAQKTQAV
Protocol: (§1) For cell surface staining with the parental rabbit anti-human CD88 mAb, PBMCs in PBS containing 2% BSA were mixed with parental rabbit anti-human CD88 mAbs at concentrations of 1 μg, 0.5 μg, 0.25 μg, 0.125 μg and 0.0625 μg as shown in FIG. 3 (A-E) and incubated for 1 hr at 4° C. The cells were washed with PBS containing 2% BSA and incubated at 4° C. for 30 minutes with BD Pharmingen PE Goat Anti-rabbit IgG (Cat No 558146). The cells were washed with PBS containing 2% BSA, and analyzed with a BD FACS Canto II Flow cytometer. Non-specific binding of the secondary anti-rabbit PE-conjugated antibody on the cells alone (primary antibody absent; FIG. 3F) and background autofluorescence by unstained cells (secondary antibody absent; FIG. 3G) served as negative controls for the assay. The % positive signal was detected.

[2] = molecular target: T1, human CD88 (complement component 5a …); assay: flow cytometry on granulocytes, PE goat anti-rabbit IgG secondary
Protocol: as §1
The binding of the variant rabbit anti-human CD88 mAbs was assayed as for the parental mAb, and the results for four variants are shown in FIGS. 4-7. […] Panels F and G show fluorescence of the negative controls as described for the parental mAb. […] Panels F and G show fluorescence of the negative controls as described for the parental mAb. […] Panels F and G show fluorescence of the negative controls as described for the parental mAb. FIG. 7 (A-E) show the binding at concentrations of 1 ug, 0.5 ug, 0.25 ug, 0.125 ug and 0.0625 ug of a fourth variant mAb having a substitution R116A in the heavy chain and a substitution Y51F in the light chain CDRs. Panels F and G show fluorescence of the negative controls as described for the parental mAb.

| Binder | binding result [1] | binding result [2] |
| --- | --- | --- |
| B1 | binds | – |
| B2 | – | no binding |
| B3 | – | no binding |
| B4 | – | no binding |
| B5 | – | no binding |

Reference: patent publication US20150093764A1 (BECTON DICKINSON, published 2015)
